Targets include HLA-A*02:06; HLA-A*02:02; HLA-A*68:02; HLA-A*02:03; HLA-A*02:01.
Common to all, as to test: IEDB peptide-MHC binding, purified MHC/competitive/radioactivity; ≥ and ≤ were set here for values at or beyond the usual limits of such assays
[1] abbreviates: source organism: Mammarenavirus choriomeningitidis.
Where [2] appears, read: source organism: Influenza A virus.
Where [3] appears, read: source organism: Vaccinia virus WR.
Where [4] appears, read: source organism: Mammarenavirus lassaense.
The mark [5] stands for this setting: source organism: Hepacivirus hominis.

In general, IC50 refers to the point on the concentration scale where inhibition reaches its midpoint. In the case of RMVSLVTSFL, the IC50 in the assay with HLA-A*02:06 (source organism: SARS-CoV1) came out at 53 nM; with HLA-A*02:02 (source organism: SARS-CoV1), 1.7 nM; in the assay with HLA-A*68:02 (source organism: SARS-CoV1) it was 6.3 nM; in the assay with HLA-A*02:03 (source organism: SARS-CoV1) it was 12 nM; in the assay with HLA-A*02:01 (source organism: SARS-CoV1), 108 nM.

In the case of RNHLRDLMGV, the IC50 with HLA-A*02:06 (setting [1]) worked out at 107 nM; with HLA-A*02:02 (setting [1]), 428 nM; with HLA-A*68:02 (setting [1]) it was 2820 nM; with HLA-A*02:03 (setting [1]) it was 733 nM; with HLA-A*02:01 (setting [1]), 113 nM.

As to RTFFLTQGA, the IC50 was determined as 1990 nM with HLA-A*02:06 (setting [2]); 2010 nM with HLA-A*02:02 (setting [2]); 514 nM in the assay with HLA-A*68:02 (setting [2]); 158 nM in the assay with HLA-A*02:03 (setting [2]); 3110 nM with HLA-A*02:01 (setting [2]).

Consider RTMPNESRV, for which the IC50 with HLA-A*02:06 (setting [3]) came to 155 nM; with HLA-A*02:02 (setting [3]), 140 nM; with HLA-A*68:02 (setting [3]), 14 nM; with HLA-A*02:03 (setting [3]), 100 nM; with HLA-A*02:01 (setting [3]) it was 1510 nM.

As for RTNDLTALL, the IC50 is 119 nM with HLA-A*02:06 (setting [3]); 3.7 nM in the assay with HLA-A*02:02 (setting [3]); 13 nM with HLA-A*68:02 (setting [3]); 7.2 nM in the assay with HLA-A*02:03 (setting [3]); 357 nM with HLA-A*02:01 (setting [3]).

RVFKKIMSI: the IC50 in the assay with HLA-A*02:06 (setting [3]) was found to be 75 nM; in the assay with HLA-A*02:02 (setting [3]), 350 nM; in the assay with HLA-A*68:02 (setting [3]), 170 nM; with HLA-A*02:03 (setting [3]) it was 0.18 nM; with HLA-A*02:01 (setting [3]), 80 nM.

Consider RVLYDEFVTI, for which the IC50 in the assay with HLA-A*02:06 (setting [3]) came out at 6.6 nM; with HLA-A*02:02 (setting [3]), 153 nM; with HLA-A*68:02 (setting [3]), 1640 nM; with HLA-A*02:03 (setting [3]) it was 178 nM; with HLA-A*02:01 (setting [3]), 28 nM.

RVSENTGMGM: the IC50 is 146 nM with HLA-A*02:06 (setting [3]); 839 nM in the assay with HLA-A*02:02 (setting [3]); 66 nM with HLA-A*68:02 (setting [3]); 89 nM with HLA-A*02:03 (setting [3]); 766 nM with HLA-A*02:01 (setting [3]).

With RVTTELNIV, the IC50 with HLA-A*02:06 (setting [3]) came to 46 nM; with HLA-A*02:02 (setting [3]) it was 2460 nM; with HLA-A*68:02 (setting [3]) it was 481 nM; with HLA-A*02:03 (setting [3]), 116 nM; in the assay with HLA-A*02:01 (setting [3]), 818 nM.

Regarding SAFNDDGIYI, the IC50 with HLA-A*02:06 (setting [3]) stood at 41 nM; with HLA-A*02:02 (setting [3]) it was 35 nM; with HLA-A*68:02 (setting [3]) it was 6.6 nM; in the assay with HLA-A*02:03 (setting [3]), 68 nM; with HLA-A*02:01 (setting [3]), 35 nM.

As for SCINRCFYV, the IC50 amounted to 226 nM with HLA-A*02:06 (setting [2]); 808 nM with HLA-A*02:02 (setting [2]); 1080 nM with HLA-A*68:02 (setting [2]); 947 nM in the assay with HLA-A*02:03 (setting [2]); 295 nM with HLA-A*02:01 (setting [2]).

Take SCLENFRAYV: the IC50 in the assay with HLA-A*02:06 (setting [2]) is 162 nM; in the assay with HLA-A*02:02 (setting [2]), 90 nM; in the assay with HLA-A*68:02 (setting [2]), 224 nM; with HLA-A*02:03 (setting [2]), 55 nM; with HLA-A*02:01 (setting [2]), 20 nM.

For SIDHCSSFI, the IC50 stood at 199 nM with HLA-A*02:06 (setting [3]); 631 nM with HLA-A*02:02 (setting [3]); 27 nM in the assay with HLA-A*68:02 (setting [3]); 13 nM with HLA-A*02:03 (setting [3]); 246 nM with HLA-A*02:01 (setting [3]).

For the sequence SIDHCSSFIV, the IC50 is 30 nM in the assay with HLA-A*02:06 (setting [3]); 172 nM with HLA-A*02:02 (setting [3]); 732 nM with HLA-A*68:02 (setting [3]); 772 nM with HLA-A*02:03 (setting [3]); 23 nM with HLA-A*02:01 (setting [3]).

Turning to SIFVSTMPV, the IC50 with HLA-A*02:06 (setting [3]) was 82 nM; with HLA-A*02:02 (setting [3]) it was 37 nM; with HLA-A*68:02 (setting [3]) it was 10 nM; in the assay with HLA-A*02:03 (setting [3]), 6.6 nM; with HLA-A*02:01 (setting [3]), 40 nM.

Consider SIINHKFCNL, for which the IC50 with HLA-A*02:06 (setting [4]) came out at 1020 nM; with HLA-A*02:02 (setting [4]), 247 nM; in the assay with HLA-A*68:02 (setting [4]), 920 nM; with HLA-A*02:03 (setting [4]), 562 nM; with HLA-A*02:01 (setting [4]), 2120 nM.

SIISLFYTFA: the IC50 with HLA-A*02:06 (setting [3]) is 94 nM; with HLA-A*02:02 (setting [3]) it was 111 nM; with HLA-A*68:02 (setting [3]), 51 nM; with HLA-A*02:03 (setting [3]), 28 nM; in the assay with HLA-A*02:01 (setting [3]), 205 nM.

Turning to SIPISELSRL, the IC50 was 78 nM with HLA-A*02:06 (setting [3]); 252 nM with HLA-A*02:02 (setting [3]); 422 nM with HLA-A*68:02 (setting [3]); 61 nM with HLA-A*02:03 (setting [3]); 2260 nM with HLA-A*02:01 (setting [3]).

Regarding SISEINEWL, the IC50 in the assay with HLA-A*02:06 (setting [3]) was 6.3 nM; in the assay with HLA-A*02:02 (setting [3]) it was 0.13 nM; in the assay with HLA-A*68:02 (setting [3]), 1.3 nM; in the assay with HLA-A*02:03 (setting [3]), 1.8 nM; in the assay with HLA-A*02:01 (setting [3]), 1.9 nM.

Consider SISGVLWTV, for which the IC50 with HLA-A*02:06 (setting [5]) is 53 nM; in the assay with HLA-A*02:02 (setting [5]) it was 8.8 nM; with HLA-A*68:02 (setting [5]), 5.5 nM; with HLA-A*02:03 (setting [5]) it was 18 nM; in the assay with HLA-A*02:01 (setting [5]) it was 11 nM.

With SISSVLTIL, the IC50 with HLA-A*02:06 (setting [3]) is 110 nM; with HLA-A*02:02 (setting [3]), 1.2 nM; with HLA-A*68:02 (setting [3]) it was 16 nM; with HLA-A*02:03 (setting [3]), 4 nM; in the assay with HLA-A*02:01 (setting [3]) it was 26 nM.

On to SIVCIVAAV, for which the IC50 amounted to 3.5 nM in the assay with HLA-A*02:06 (setting [3]); 3.9 nM in the assay with HLA-A*02:02 (setting [3]); 0.55 nM with HLA-A*68:02 (setting [3]); 2.8 nM with HLA-A*02:03 (setting [3]); 5.3 nM with HLA-A*02:01 (setting [3]).

SIYIAVANCV: the IC50 was 1000 nM in the assay with HLA-A*02:06 (setting [3]); 534 nM with HLA-A*02:02 (setting [3]); 306 nM with HLA-A*68:02 (setting [3]); 63 nM with HLA-A*02:03 (setting [3]); 1460 nM with HLA-A*02:01 (setting [3]).

The values are drawn from the Immune Epitope Database (IEDB).
